Assay results published in PMC11754664, “DNA binding and transposition activity of the Sleeping Beauty transposase: role of structural stability of the primary DNA-binding domain”.

What was measured:
[1] = biological target: T1, SB100X transposase (synthetic Sleeping Beauty transposon, K14R;K33A;R115H;R214D;K215A;E216V;N217Q;M243H;T314N); experiment: MST; specific (first) transition; Full-length MST: 50 mM Tris pH 7.5, 5 mM MgCl2, 300 mM NaCl, 2% glycerol, 50 mM Arg-Glu, 1 mM TCEP, 0.1% Triton X-100, 0.1 mg/ml BSA, 30 nM Cy5-DNA, room temp; conditions: protein: recombinant; tags: Ni-NTA purified; label: 5' Cy5 on forward strand (MST)
[2] = biological target: T2, SB10 transposase (synthetic Sleeping Beauty transposon); experiment: as above; conditions: protein: recombinant; tags: Ni-NTA purified; label: 5' Cy5 on forward strand (MST)
[3] = biological target: T3, H19Y (PAI K14R/H19Y/K33A) (synthetic Sleeping Beauty transposon, UniProt PDB:6URS_1, K14R;H19Y;K33A); experiment: NMR; HSQC, pH 5.2, 35 C, 1:4.5 protein:DNA; Full-length MST: 50 mM Tris pH 7.5, 5 mM MgCl2, 300 mM NaCl, 2% glycerol, 50 mM Arg-Glu, 1 mM TCEP, 0.1% Triton X-100, 0.1 mg/ml BSA, 30 nM Cy5-DNA, room temp; conditions: protein: recombinant; tags: Ni-NTA purified; label: 5' Cy5 on forward strand (MST)
[4] = biological target: T1, SB100X transposase; experiment: fluorescence lifetime; Full-length MST: 50 mM Tris pH 7.5, 5 mM MgCl2, 300 mM NaCl, 2% glycerol, 50 mM Arg-Glu, 1 mM TCEP, 0.1% Triton X-100, 0.1 mg/ml BSA, 30 nM Cy5-DNA, room temp; conditions: protein: recombinant; tags: Ni-NTA purified; label: 5' Cy5 on forward strand (MST)
[5] = biological target: T2, SB10 transposase; experiment: as above; conditions: protein: recombinant; tags: Ni-NTA purified; label: 5' Cy5 on forward strand (MST)
[6] = biological target: T4, SB10-H19Y (synthetic Sleeping Beauty transposon, H19Y); experiment: as above; conditions: protein: recombinant; tags: Ni-NTA purified; label: 5' Cy5 on forward strand (MST)
[7] = biological target: T5, SB100X-H19Y (synthetic Sleeping Beauty transposon, K14R;H19Y;K33A;R115H;R214D;K215A;E216V;N217Q;M243H;T314N); experiment: MST; Full-length MST: 50 mM Tris pH 7.5, 5 mM MgCl2, 300 mM NaCl, 2% glycerol, 50 mM Arg-Glu, 1 mM TCEP, 0.1% Triton X-100, 0.1 mg/ml BSA, 30 nM Cy5-DNA, room temp; conditions: protein: recombinant; tags: Ni-NTA purified; label: 5' Cy5 on forward strand (MST)
[8] = biological target: T4, SB10-H19Y; experiment: as above; conditions: protein: recombinant; tags: Ni-NTA purified; label: 5' Cy5 on forward strand (MST)
[9] = biological target: T1, SB100X transposase; experiment: fluorescence anisotropy; Full-length MST: 50 mM Tris pH 7.5, 5 mM MgCl2, 300 mM NaCl, 2% glycerol, 50 mM Arg-Glu, 1 mM TCEP, 0.1% Triton X-100, 0.1 mg/ml BSA, 30 nM Cy5-DNA, room temp; conditions: protein: recombinant; tags: Ni-NTA purified; label: 5' Cy5 on forward strand (MST)
[10] = biological target: T2, SB10 transposase; experiment: as above; conditions: protein: recombinant; tags: Ni-NTA purified; label: 5' Cy5 on forward strand (MST)
[11] = biological target: T4, SB10-H19Y; experiment: as above; conditions: protein: recombinant; tags: Ni-NTA purified; label: 5' Cy5 on forward strand (MST)
[12] = biological target: T5, SB100X-H19Y; experiment: fluorescence lifetime; Full-length MST: 50 mM Tris pH 7.5, 5 mM MgCl2, 300 mM NaCl, 2% glycerol, 50 mM Arg-Glu, 1 mM TCEP, 0.1% Triton X-100, 0.1 mg/ml BSA, 30 nM Cy5-DNA, room temp; conditions: protein: recombinant; tags: Ni-NTA purified; label: 5' Cy5 on forward strand (MST)
[13] = biological target: T5, SB100X-H19Y; experiment: fluorescence anisotropy; Full-length MST: 50 mM Tris pH 7.5, 5 mM MgCl2, 300 mM NaCl, 2% glycerol, 50 mM Arg-Glu, 1 mM TCEP, 0.1% Triton X-100, 0.1 mg/ml BSA, 30 nM Cy5-DNA, room temp; conditions: protein: recombinant; tags: Ni-NTA purified; label: 5' Cy5 on forward strand (MST)
[14] = biological target: T3, H19Y (PAI K14R/H19Y/K33A); experiment: NMR; HSQC and PFG diffusion, pH 5.2, 35 C, 1:5; monomeric complex; Full-length MST: 50 mM Tris pH 7.5, 5 mM MgCl2, 300 mM NaCl, 2% glycerol, 50 mM Arg-Glu, 1 mM TCEP, 0.1% Triton X-100, 0.1 mg/ml BSA, 30 nM Cy5-DNA, room temp; conditions: protein: recombinant; tags: Ni-NTA purified; label: 5' Cy5 on forward strand (MST)
[15] = biological target: T1, SB100X transposase; experiment: MST; nonspecific, monophasic; Full-length MST: 50 mM Tris pH 7.5, 5 mM MgCl2, 300 mM NaCl, 2% glycerol, 50 mM Arg-Glu, 1 mM TCEP, 0.1% Triton X-100, 0.1 mg/ml BSA, 30 nM Cy5-DNA, room temp; conditions: protein: recombinant; tags: Ni-NTA purified; label: Cy5 (5' forward strand)
[16] = biological target: T2, SB10 transposase; experiment: as above; conditions: protein: recombinant; tags: Ni-NTA purified; label: Cy5 (5' forward strand)
[17] = biological target: T5, SB100X-H19Y; experiment: MST; nonspecific; Full-length MST: 50 mM Tris pH 7.5, 5 mM MgCl2, 300 mM NaCl, 2% glycerol, 50 mM Arg-Glu, 1 mM TCEP, 0.1% Triton X-100, 0.1 mg/ml BSA, 30 nM Cy5-DNA, room temp; conditions: protein: recombinant, tags: Ni-NTA purified
[18] = biological target: T3, H19Y (PAI K14R/H19Y/K33A); experiment: NMR; HSQC and PFG diffusion, pH 5.2, 35 C; monomeric complex; Full-length MST: 50 mM Tris pH 7.5, 5 mM MgCl2, 300 mM NaCl, 2% glycerol, 50 mM Arg-Glu, 1 mM TCEP, 0.1% Triton X-100, 0.1 mg/ml BSA, 30 nM Cy5-DNA, room temp; conditions: protein: recombinant; tags: Ni-NTA purified; label: 5' Cy5 on forward strand (MST)

Row | Binder | Kd [1] [nM] | Kd [2] [nM] | binding result [3] | Kd [4] [nM] | Kd [5] [nM] | Kd [6] [nM] | Kd [7] [nM] | Kd [8] [nM] | Kd [9] [nM] | Kd [10] [nM] | Kd [11] [nM] | Kd [12] [nM] | Kd [13] [nM] | binding result [14] | Kd [15] [nM] | Kd [16] [nM] | Kd ([17]; label: Cy5 (5' forward strand)) [µM] | binding result [18] | Kd [17] [µM]
1 | DR-core (dsDNA) DNA 1: TCGGAAGTTTACATACAC DNA 2: GTGTATGTAAACTTCCGA | 17.3 ± 1.1 | 25.3 ± 0.9 | binds | 31.6 ± 3.4 | 29.4 ± 2 | 45.4 ± 4.8 | 31.2 ± 11.1 | 31.1 ± 2.3 | 35.1 ± 6.6 | 37 ± 4 | 51.3 ± 8.3 | – | – | – | – | – | – | – | –
2 | Li (dsDNA) DNA 1: TCCAGTGGGTCAGAAGTTTACATACACTAAGT DNA 2: ACTTAGTGTATGTAAACTTCTGACCCACTGGA | 23.6 ± 2.2 | 17.3 ± 1.2 | – | 25.9 ± 2.3 | 17.2 ± 0.8 | 16 ± 0.7 | 10.3 ± 0.8 | 10.2 ± 0.9 | 27.6 ± 4.9 | 19.3 ± 2.8 | 18.2 ± 2.2 | 16.2 ± 2.3 | 16 ± 3.2 | binds | – | – | – | – | –
3 | NS1 (dsDNA) DNA 1: ACCTTCCTCCGCAATACTCCCCCAGGT DNA 2: ACCTGGGGGAGTATTGCGGAGGAAGGT | – | – | – | – | – | – | – | – | – | – | – | – | – | – | 560 ± 40 | 2600 ± 160 | 2.71 ± 0.21 | – | –
4 | Lo (dsDNA) DNA 1: CAGTTGAAGTCGGAAGTTTACATACACTTAAG DNA 2: CTTAAGTGTATGTAAACTTCCGACTTCAACTG | 23 ± 1.9 | 16.6 ± 2.6 | – | 16 ± 2.6 | 23 ± 2.2 | 13.2 ± 1.1 | 29.7 ± 3.5 | 11.6 ± 1.8 | 13.7 ± 2.8 | 23.9 ± 2.8 | 9.73 ± 2.5 | 20.6 ± 0.8 | 17.3 ± 2.2 | – | – | – | – | binds | –
5 | NS2 (dsDNA) DNA 1: CGGTCTTTCCGTCTT DNA 2: AAGACGGAAAGACCG | – | – | – | – | – | – | – | – | – | – | – | – | – | – | – | – | – | – | 3.43 ± 0.24
